Source: the supplement of paper PMC7877785
± gives the uncertainty stated by the source.

Assay: self-splicing fitness, log relative to wild type (ln ratio); higher = more splicing; Tetrahymena group I intron in knt gene, E. coli kanamycin selection, DiMSum; sequences stand for … in CUCUCU…GGAGGGAAAAGUUAUCAGGCAUGCACCUGGUAGCUAGUCUUUAAACCAAUAGAUUGCAUCGGUUUAAAAGGCAAGACCGUCAAAUUGCGGGAAAGGGGUCAACAGCCGUUCAGUACCAAGUCUCAGGGGAAACUUUGAGAUGGCCUUGCAAAGGGUAUGGUAAUAAGCUGACGGACAUGGUCCUAACCACGCAGCCAAGUCCUAAGUCAACAGAUCUUCUGUUGAUAUGGAUGCAGUUCACAGACUAAAUGUCGGUCGGGGAAGAUGUAUUCUUCUCAUAAGAUAUAGUCGGACCUCUCCUUAAUGGGAGCUAGCGGAUGAAGUGAUGCAACACUGGAGCCGCUGGGAACUAAUUUGUAUGCGAAAGUAUAUUGAUUAGUUUUGGAGUACUCGUGGUCG
Procedure, shortened: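 A randomised library covering all eight P1ex-region intron nucleotides was built with the intron in the knt kanamycin-resistance gene on pET-22b(+) and held in E. coli BL21(DE3). Cells were grown overnight at 37°C or 30°C on LB agar, with or without 25 μg/mL kanamycin, plus 100 μg/mL carbenicillin, 50 μM IPTG and 0.2% rhamnose, and pooled colonies were amplicon-sequenced on an Illumina HiSeq 2500. DiMSum fitness is the error-weighted combination of wild-type-normalised replicate fold changes, kanamycin versus none.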

| Sequence | self-splicing fitness (ln) (30 °C) | self-splicing fitness (ln) (37 °C) |
| --- | --- | --- |
| AAAUAGCAAUAUUACGAUAA | -1.51 ± 0.12 | -0.658 ± 0.13 |
| AAAUAGCAAUAUUACGAUAU | -1.21 ± 0.13 | -0.352 ± 0.16 |
| AAAUAGCAAUAUUACGCAGU | -3.79 ± 0.2 | -1.57 ± 0.14 |
| AAAUAGCAAUAUUACGCAUG | -1.27 ± 0.11 | -1.03 ± 0.12 |
| AAAUAGCAAUAUUACGCCAC | -3.22 ± 0.36 | -2.18 ± 0.5 |
| AAAUAGCAAUAUUACGCGUG | -1.11 ± 0.078 | -0.804 ± 0.11 |
| AAAUAGCAAUAUUACGGAAA | -2.87 ± 0.26 | -1.53 ± 0.17 |
| AAAUAGCAAUAUUACGGAAU | -3.69 ± 0.17 | -2.24 ± 0.16 |
| AAAUAGCAAUAUUACGGCGG | -1.48 ± 0.086 | -0.335 ± 0.1 |
| AAAUAGCAAUAUUACGGGGU | -3.27 ± 0.17 | -2.12 ± 0.19 |
| AAAUAGCAAUAUUACGUAAA | -1.61 ± 0.096 | -0.713 ± 0.11 |
| AAAUAGCAAUAUUACGUACC | -0.0895 ± 0.18 | -1.39 ± 0.24 |
| AAAUAGCAAUAUUACGUACG | -1.1 ± 0.11 | -1.16 ± 0.13 |
| AAAUAGCAAUAUUACGUCAA | -2.07 ± 0.17 | -1.8 ± 0.18 |
| AAAUAGCAAUAUUACGUCAG | -2.52 ± 0.12 | -1.41 ± 0.11 |
| AAAUAGCAAUAUUACGUCCG | -1.39 ± 0.16 | 0.00872 ± 0.18 |
| AAAUAGCAAUAUUACGUUGG | -4.2 ± 0.22 | -2.57 ± 0.21 |
| AACAAGCAAUAUUACGAAAC | -3.9 ± 0.23 | -2.33 ± 0.27 |
| AACAAGCAAUAUUACGAAGU | -2.46 ± 0.085 | -1.29 ± 0.099 |
| AACAAGCAAUAUUACGAGCG | -0.912 ± 0.057 | 0.125 ± 0.078 |
| AACAAGCAAUAUUACGAUGA | -0.584 ± 0.072 | -0.801 ± 0.073 |
| AACAAGCAAUAUUACGAUUC | -1.61 ± 0.11 | -0.551 ± 0.12 |
| AACAAGCAAUAUUACGCAUU | -2.01 ± 0.069 | -1.32 ± 0.091 |
| AACAAGCAAUAUUACGCCCG | -0.206 ± 0.11 | -0.347 ± 0.17 |

| Sequence | self-splicing fitness (ln) (30 °C) | self-splicing fitness (ln) (37 °C) |
| --- | --- | --- |
| AACAAGCAAUAUUACGCCGU | -1.5 ± 0.096 | -0.696 ± 0.094 |
| AACAAGCAAUAUUACGCGAC | -2.41 ± 0.21 | -1.47 ± 0.21 |
| AACAAGCAAUAUUACGCGUA | -1.13 ± 0.067 | -0.921 ± 0.078 |
| AACAAGCAAUAUUACGCUGA | -1.34 ± 0.087 | -1.01 ± 0.11 |
| AACAAGCAAUAUUACGGAGU | -2.72 ± 0.07 | -1.58 ± 0.078 |
| AACAAGCAAUAUUACGGCAA | -0.882 ± 0.069 | 0.119 ± 0.077 |
| AACAAGCAAUAUUACGGCAC | -0.526 ± 0.067 | -0.265 ± 0.1 |
| AACAAGCAAUAUUACGGUUC | -2.97 ± 0.12 | -2.43 ± 0.12 |
| AACAAGCAAUAUUACGUAAU | -1.98 ± 0.074 | -0.78 ± 0.08 |
| AACAAGCAAUAUUACGUCAA | -1.68 ± 0.094 | -1.59 ± 0.11 |
| AACAAGCAAUAUUACGUCAU | -2.35 ± 0.075 | -1.59 ± 0.082 |
| AACCAGCAAUAUUACGAACG | -1.27 ± 0.08 | -1.25 ± 0.089 |
| AACCAGCAAUAUUACGAAUG | -2.22 ± 0.089 | -1.89 ± 0.083 |
| AACCAGCAAUAUUACGACUC | -0.597 ± 0.053 | -0.327 ± 0.066 |
| AACCAGCAAUAUUACGACUG | -3.11 ± 0.15 | -1.83 ± 0.12 |
| AACCAGCAAUAUUACGAGAC | -3.67 ± 0.39 | -1.71 ± 0.18 |
| AACCAGCAAUAUUACGAGGC | -3.43 ± 0.23 | -2.2 ± 0.18 |
| AACCAGCAAUAUUACGAGUG | -0.0963 ± 0.045 | -0.0773 ± 0.06 |
| AACCAGCAAUAUUACGAUCA | -0.638 ± 0.1 | -0.0996 ± 0.11 |
| AACCAGCAAUAUUACGAUGU | -0.353 ± 0.039 | 0.149 ± 0.054 |
| AACCAGCAAUAUUACGAUUU | 0.157 ± 0.044 | -0.0356 ± 0.058 |
| AACCAGCAAUAUUACGCCGC | -4.1 ± 0.3 | -2.45 ± 0.35 |
| AACCAGCAAUAUUACGCCUC | -0.868 ± 0.13 | -0.399 ± 0.16 |
| AACCAGCAAUAUUACGCGCA | -0.111 ± 0.068 | -0.00763 ± 0.089 |

| Sequence | self-splicing fitness (ln) (30 °C) | self-splicing fitness (ln) (37 °C) |
| --- | --- | --- |
| AACCAGCAAUAUUACGCUCA | -0.325 ± 0.049 | 0.493 ± 0.072 |
| AACCAGCAAUAUUACGCUGA | -2.56 ± 0.1 | -1.51 ± 0.094 |
| AACCAGCAAUAUUACGCUUG | -1.94 ± 0.089 | -1.07 ± 0.11 |
| AACCAGCAAUAUUACGGAAA | -1.73 ± 0.097 | -0.275 ± 0.088 |
| AACCAGCAAUAUUACGGACU | -0.113 ± 0.061 | 0.226 ± 0.082 |
| AACCAGCAAUAUUACGGCGU | 0.196 ± 0.054 | 0.259 ± 0.068 |
| AACCAGCAAUAUUACGGGAC | -2.39 ± 0.094 | -2.11 ± 0.09 |
| AACCAGCAAUAUUACGGUGC | -3.48 ± 0.16 | -1.75 ± 0.13 |
| AACCAGCAAUAUUACGGUGU | -1.87 ± 0.061 | -2.56 ± 0.11 |
| AACCAGCAAUAUUACGGUUA | -2.14 ± 0.099 | -0.269 ± 0.084 |
| AACCAGCAAUAUUACGUACG | -1.42 ± 0.063 | -0.431 ± 0.067 |
| AACCAGCAAUAUUACGUCAG | -2.3 ± 0.079 | -1.49 ± 0.086 |
| AACCAGCAAUAUUACGUCAU | -1.23 ± 0.063 | -1.14 ± 0.067 |
| AACCAGCAAUAUUACGUCGG | -3.79 ± 0.12 | -1.41 ± 0.094 |
| AACCAGCAAUAUUACGUUGA | -1.65 ± 0.083 | -0.421 ± 0.087 |
| AACGAGCAAUAUUACGAACG | -3.03 ± 0.45 | -1.37 ± 0.28 |
| AACGAGCAAUAUUACGACAU | -2.2 ± 0.015 | -1.33 ± 0.033 |
| AACGAGCAAUAUUACGAGGU | -3.56 ± 0.18 | -1.96 ± 0.16 |
| AACGAGCAAUAUUACGAUAC | -2.52 ± 0.37 | -1.97 ± 0.46 |
| AACGAGCAAUAUUACGAUAU | -3.13 ± 0.21 | -1.3 ± 0.17 |
| AACGAGCAAUAUUACGAUCG | -1.19 ± 0.14 | -1.06 ± 0.16 |
| AACGAGCAAUAUUACGAUUC |  | 0.32 ± 0.17 |
| AACGAGCAAUAUUACGCAUG | -4.23 ± 0.31 | -2.76 ± 0.29 |
| AACGAGCAAUAUUACGGCCG | -1.2 ± 0.12 | -1.07 ± 0.21 |

| Sequence | self-splicing fitness (ln) (30 °C) | self-splicing fitness (ln) (37 °C) |
| --- | --- | --- |
| AACGAGCAAUAUUACGUGCU | -3.09 ± 0.21 | -2.16 ± 0.28 |
| AACGAGCAAUAUUACGUGGG | -3.94 ± 0.15 | -2.7 ± 0.12 |
| AACGAGCAAUAUUACGUUCG | -3 ± 0.48 | -1.19 ± 0.2 |
| AACUAGCAAUAUUACGAAUC | -2.81 ± 0.17 | -1.27 ± 0.19 |
| AACUAGCAAUAUUACGACAA | -0.829 ± 0.064 | -0.603 ± 0.066 |
| AACUAGCAAUAUUACGACAU | -0.187 ± 0.011 | 0.0705 ± 0.032 |
| AACUAGCAAUAUUACGAGAA | -2.64 ± 0.48 | -1.71 ± 0.22 |
| AACUAGCAAUAUUACGAGGG | -2.13 ± 0.12 | -2.24 ± 0.19 |
| AACUAGCAAUAUUACGAGGU | -3.14 ± 0.3 | -2.01 ± 0.25 |
| AACUAGCAAUAUUACGAUAA | -1.41 ± 0.099 | -0.94 ± 0.099 |
| AACUAGCAAUAUUACGAUGA | -0.741 ± 0.079 | -0.0286 ± 0.08 |
| AACUAGCAAUAUUACGCCCU | 0.324 ± 0.067 | -0.165 ± 0.08 |
| AACUAGCAAUAUUACGCCUC | -2.29 ± 0.3 | -0.975 ± 0.24 |
| AACUAGCAAUAUUACGCGCA | -0.47 ± 0.099 | 0.116 ± 0.12 |
| AACUAGCAAUAUUACGGACG | -1.21 ± 0.06 | -0.904 ± 0.072 |
| AACUAGCAAUAUUACGGAGA | -2.62 ± 0.23 | -1.35 ± 0.2 |
| AACUAGCAAUAUUACGGAGU | -2.95 ± 0.13 | -1.42 ± 0.13 |
| AACUAGCAAUAUUACGGGAG | -1.35 ± 0.11 | -1.21 ± 0.13 |
| AACUAGCAAUAUUACGGGCC | -1.81 ± 0.12 | -1.36 ± 0.14 |
| AACUAGCAAUAUUACGGGUU | -3.03 ± 0.12 | -2.82 ± 0.17 |
| AACUAGCAAUAUUACGGUAC | -3.39 ± 0.28 | -1.9 ± 0.17 |
| AACUAGCAAUAUUACGGUCC | -0.628 ± 0.13 | -0.637 ± 0.15 |
| AACUAGCAAUAUUACGGUGG | -2.14 ± 0.079 | -0.926 ± 0.086 |
